Test results taken from patent US20150337046A1 (published 2015).

T1: human LIGHT (hLIGHT), cell surface-expressed, full length (UniProt O43557 1-240)
T1 chain: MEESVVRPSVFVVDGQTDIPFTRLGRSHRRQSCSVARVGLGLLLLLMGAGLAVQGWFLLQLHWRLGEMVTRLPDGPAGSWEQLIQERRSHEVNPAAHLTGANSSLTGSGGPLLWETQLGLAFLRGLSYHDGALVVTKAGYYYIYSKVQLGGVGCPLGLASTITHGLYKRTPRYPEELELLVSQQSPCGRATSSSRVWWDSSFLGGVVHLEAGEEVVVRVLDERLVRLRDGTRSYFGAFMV


Biological target: T1, human LIGHT (hLIGHT), cell …
Assay: FACS binding; 293-hLIGHT cells

EC50 [µg/mL]	Binder
0.547	recombinant single kappa chain antibody of E1 heavy chain paired with Elkappa(B) (antibody, V domains shown) VH: EVQLVESGGGLVQPGGSLRLSCAASGFTFSRFNMNWVRQAPGKGLEWVSYISSSSYTIYYADSVKGRFTISRDNAKNSLDLQMNSLRDEDTAVYYCARSIAAAFDYWGQGALVTVSS VL: not shown
0.463	E1 antibody (produced by hybridoma 124 E1, ATCC Accession No. PTA-7729) (antibody, V domains shown) VH: EVQLVESGGGLVQPGGSLRLSCAASGFTFSRFNMNWVRQAPGKGLEWVSYISSSSYTIYYADSVKGRFTISRDNAKNSLDLQMNSLRDEDTAVYYCARSIAAAFDYWGQGALVTVSS VL: not shown
